Source: patent publication US20220143148A1, “COMPOSITIONS AND METHODS FOR MODULATING CGRP SIGNALING TO REGULATE INTESTINAL INNATE LYMPHOID CELLS” (The Broad Institute, Inc., priority 2019, published 2022)

Tested on: small intestinal immune cells
Assay: Droplet-based scRNA-seq of small intestinal immune cells (LP and PP), OVA vs PBS, clustering and differential expression
Type: in vivo, mouse
Conditions: PP
Excerpt: To comprehensively characterize small intestinal immune cells, Applicants generated scRNA-Seq profiles for 58,067 immune cells collected from lamina propria (LP) and Peyer's patch (PP) regions at steady state and after induction of a type 2 inflammatory reaction to ovalbumin (OVA) (Brandt et al., 2003) (FIGS. 1A and 8A). To ensure sufficient representation of rare cells, Applicants combined a normalization strategy—removing by flow sorting either a portion of IgD+ naïve B cells, which are the most abundant cell type in PPs, or all CD19+ and CD3+ T cells (FIG. 8B, Methods)—with profiling of a sufficiently large number of cells number (P>0.99 to recover at least 15 cells from each cluster, Methods) by massively parallel scRNA-seq (Haber et al., 2017) (Methods). Applicants obtained 36,797 and 21,270 high quality cells passing initial filtering (Methods) from PP and LP regions, respectively.
Overall, Applicants annotated 27 cell subsets across the two compartments, spanning T cells, B cells, ILCs, dendritic cells (DCs), myeloid cells and stromal cells, in frequencies ranging from 0.07% to 14%. Briefly, Applicants first partitioned the cells from the PP regions by unsupervised clustering (Methods) into 46 clusters, retained the 97% of cells that were robustly assigned cell identities in each cluster (Methods), assigned the cells from the LP regions to the 46 clusters using a classifier (Methods), and visualized the data with scvis (Ding et al., 2018), a deep generative model-based method (FIGS. 1B and 8C, Methods). Next, Applicants identified genes that were differentially expressed between the cells in each cluster and the remaining cells (Table 1, Methods), as well as between pairs of clusters (Table 2), to elucidate identities of similar cell types/states. Applicants excluded from downstream analysis clusters mostly consisting of contaminants from epithelium, likely doublets, or cells with a small number of Unique Molecular Identifiers (UMIs) (FIGS. 1C and 8D), or lacking distinct markers (Methods). Altogether, Applicants retained 27 clusters spanning 85% of the cells and each associated with distinct marker genes (FIG. 8E, Methods).
To induce allergic reaction to OVA, 6 to 7 weeks old mice were sensitized twice, two weeks apart, with 50 μg of OVA plus 1 mg of aluminum potassium sulfate adjuvant via intraperitoneal injection. Two weeks later, mice were orally administered with 50 mg of OVA on every other day for a total of five times. 1 μg of α-CGRP peptide was administered simultaneously when indicated. Mice were deprived of food for 3-4 hours in cages with wood chip bedding for limiting antigen degradation in the stomach before each intragastric challenge.
Isolation of cells from Peyer's patches (PPs). Peyer's patches (PPs) were carefully dissected from the small intestine under a stereo microscope using a fine scissor, pierced once with a fine forcep. Tissues were digested in freshly made digestion buffer (RPMI-1640 containing 100 μg/ml Liberase™ and 50 μg/ml DNase I at 37° C. on a roto-mixer. After 15 min, tissues were very gently mixed using a 1 ml pipette. The supernatant was collected and added to ice-cold MACS buffer (pH 7.4; PBS plus 2% FCS and 2 mM EDTA). Pre-warmed (37° C.) fresh digestion buffer was added to the remaining tissues. After rotation at 37° C. for 15 min, the mixture was vigorously mixed using a 1 ml pipette for 1 min. Supernatants from the two steps were combined and passed through 70 μm filters and stained for FACS (below).
Isolation of cells from the lamina propria (LP). The small intestines were opened longitudinally and washed in ice-cold PBS. For scRNA-seq, roughly 0.5 cm of fragments from each of the distal, middle and proximal regions without visible PPs were collected. Epithelial cells were dissociated by tissue rotation in pre-warmed (37° C.) PBS containing 10 mM EDTA at 37° C. for 15 min, followed by additional incubation on ice for 15 min. Tissues were then shaken vigorously. […]

B1: OVA (protein, UniProt P01012 2-386, looked up)
Ovalbumin: GSIGAASMEFCFDVFKELKVHHANENIFYCPIAIMSALAMVYLGAKDSTRTQINKVVRFDKLPGFGDSIEAQCGTSVNVHSSLRDILNQITKPNDVYSFSLASRLYAEERYPILPEYLQCVKELYRGGLEPINFQTAADQARELINSWVESQTNGIIRNVLQPSSVDSQTAMVLVNAIVFKGLWEKAFKDEDTQAMPFRVTEQESKPVQMMYQIGLFRVASMASEKMKILELPFASGTMSMLVLLPDEVSGLEQLESIINFEKLTEWTSSNVMEERKIKVYLPRMKMEEKYNLTSVLMAMGITDVFSSSANLSGISSAESLKISQAVHAAHAEINEAGREVVGSAEAGVDAASVSEEFRADHPFLFCIKHIATNAVLFFGRCVSP
Snrnp70 LN (average fold change) (cluster ID 6, OVA vs PBS): 0.220
Tmem50a LN (average fold change) (cluster ID 6, OVA vs PBS): 0.153
Tmem59 LN (average fold change) (cluster ID 6, OVA vs PBS): 0.179
Tmem86a LN (average fold change) (cluster ID 6, OVA vs PBS): 0.323
Tsix LN (average fold change) (cluster ID 6, OVA vs PBS): −0.418
Txndc5 LN (average fold change) (cluster ID 6, OVA vs PBS): 0.226
Ddit4 percentage of expressing cells in OVA-treated group (cluster ID 7): 0.359
Dusp2 percentage of expressing cells in OVA-treated group (cluster ID 7): 0.465
Fkbp5 percentage of expressing cells in OVA-treated group (cluster ID 7): 0.167
Gabarapl2 percentage of expressing cells in OVA-treated group (cluster ID 7): 0.643
Hsp90ab1 percentage of expressing cells in OVA-treated group (cluster ID 7): 0.834
Il7r percentage of expressing cells in OVA-treated group (cluster ID 7): 0.191
Lmo4 percentage of expressing cells in OVA-treated group (cluster ID 7): 0.204
Matk percentage of expressing cells in OVA-treated group (cluster ID 7): 0.284
Ptpn22 percentage of expressing cells in OVA-treated group (cluster ID 7): 0.53
Svbp percentage of expressing cells in OVA-treated group (cluster ID 7): 0.246
Tsc22d3 percentage of expressing cells in OVA-treated group (cluster ID 7): 0.565
Txnip percentage of expressing cells in OVA-treated group (cluster ID 7): 0.415
Zfp36l2 percentage of expressing cells in OVA-treated group (cluster ID 7): 0.757
Ddit4 LN (average fold change) (cluster ID 7, OVA vs PBS): 0.463
Dusp2 LN (average fold change) (cluster ID 7, OVA vs PBS): 0.542
Fkbp5 LN (average fold change) (cluster ID 7, OVA vs PBS): 0.540
Gabarapl2 LN (average fold change) (cluster ID 7, OVA vs PBS): 0.253
Hsp90ab1 LN (average fold change) (cluster ID 7, OVA vs PBS): −0.450
Il7r LN (average fold change) (cluster ID 7, OVA vs PBS): 0.526
Lmo4 LN (average fold change) (cluster ID 7, OVA vs PBS): 0.711
Matk LN (average fold change) (cluster ID 7, OVA vs PBS): 0.513
Ptpn22 LN (average fold change) (cluster ID 7, OVA vs PBS): 0.340
Svbp LN (average fold change) (cluster ID 7, OVA vs PBS): 0.261
Tsc22d3 LN (average fold change) (cluster ID 7, OVA vs PBS): 1.003
Txnip LN (average fold change) (cluster ID 7, OVA vs PBS): 0.551
Zfp36l2 LN (average fold change) (cluster ID 7, OVA vs PBS): 1.239
AW112010 percentage of expressing cells in OVA-treated group (cluster ID 8): 0.995
AY036118 percentage of expressing cells in OVA-treated group (cluster ID 8): 0.431
Actr3 percentage of expressing cells in OVA-treated group (cluster ID 8): 0.771
Alyref percentage of expressing cells in OVA-treated group (cluster ID 8): 0.137
Amd1 percentage of expressing cells in OVA-treated group (cluster ID 8): 0.265
Arf4 percentage of expressing cells in OVA-treated group (cluster ID 8): 0.478
Arfrp1 percentage of expressing cells in OVA-treated group (cluster ID 8): 0.21
Arl6ip1 percentage of expressing cells in OVA-treated group (cluster ID 8): 0.61
Arl6ip5 percentage of expressing cells in OVA-treated group (cluster ID 8): 0.618
Arpc5l percentage of expressing cells in OVA-treated group (cluster ID 8): 0.381
Arrb2 percentage of expressing cells in OVA-treated group (cluster ID 8): 0.32
Ash1l percentage of expressing cells in OVA-treated group (cluster ID 8): 0.235
B2m percentage of expressing cells in OVA-treated group (cluster ID 8): 0.999
Bcl2a1b percentage of expressing cells in OVA-treated group (cluster ID 8): 0.151
Bcl2l11 percentage of expressing cells in OVA-treated group (cluster ID 8): 0.383
Bcl2 percentage of expressing cells in OVA-treated group (cluster ID 8): 0.839
Bhlhe40 percentage of expressing cells in OVA-treated group (cluster ID 8): 0.571
Cap1 percentage of expressing cells in OVA-treated group (cluster ID 8): 0.695
Ccr2 percentage of expressing cells in OVA-treated group (cluster ID 8): 0.536
Cd47 percentage of expressing cells in OVA-treated group (cluster ID 8): 0.833
Cd69 percentage of expressing cells in OVA-treated group (cluster ID 8): 0.306
Cd74 percentage of expressing cells in OVA-treated group (cluster ID 8): 0.448
Cdk2ap1 percentage of expressing cells in OVA-treated group (cluster ID 8): 0.132
Cdkn1a percentage of expressing cells in OVA-treated group (cluster ID 8): 0.084
Cdv3 percentage of expressing cells in OVA-treated group (cluster ID 8): 0.255
Cks2 percentage of expressing cells in OVA-treated group (cluster ID 8): 0.108
Clec2d percentage of expressing cells in OVA-treated group (cluster ID 8): 0.289
Coq10b percentage of expressing cells in OVA-treated group (cluster ID 8): 0.305
Crem percentage of expressing cells in OVA-treated group (cluster ID 8): 0.371
Csrp1 percentage of expressing cells in OVA-treated group (cluster ID 8): 0.129
Ctla2a percentage of expressing cells in OVA-treated group (cluster ID 8): 0.74
Cxcr4 percentage of expressing cells in OVA-treated group (cluster ID 8): 0.577
Ddx21 percentage of expressing cells in OVA-treated group (cluster ID 8): 0.248
Defa24 percentage of expressing cells in OVA-treated group (cluster ID 8): 0.044
Dgat1 percentage of expressing cells in OVA-treated group (cluster ID 8): 0.175
Dusp1 percentage of expressing cells in OVA-treated group (cluster ID 8): 0.614
Eef2 percentage of expressing cells in OVA-treated group (cluster ID 8): 0.957
Egr1 percentage of expressing cells in OVA-treated group (cluster ID 8): 0.156
Eif4a2 percentage of expressing cells in OVA-treated group (cluster ID 8): 0.622
Emb percentage of expressing cells in OVA-treated group (cluster ID 8): 0.506
Fam105a percentage of expressing cells in OVA-treated group (cluster ID 8): 0.376
Fasl percentage of expressing cells in OVA-treated group (cluster ID 8): 0.598
Fcer1g percentage of expressing cells in OVA-treated group (cluster ID 8): 0.927
